This note sets out measurements from article PMC10049462, “Molecular Structure of Phosphoserine Aminotransferase from Saccharomyces cerevisiae” (International Journal of Molecular Sciences, 2023).

This data set deals with the molecule itself. Put plainly: crystal structure; sitting-drop vapor diffusion at 20 °C; optimized crystals from 2.4 M ammonium sulfate, 0.1 M citric acid pH 3.5; space group P3(1)21; 2.8 Å; apo form; dimer in the asymmetric unit.

B1: Saccharomyces cerevisiae phosphoserine aminotransferase (enzyme, S. cerevisiae, UniProt P33330 1-395, looked up)
chain: MSLEREEPQHFGAGPAQMPTPVLQQAAKDLINFNDIGLGIGEISHRSKDATKVIEDSKKHLIELLNIPDTHEVFYLQGGGTTGFSSVATNLAAAYVGKHGKIAPAGYLVTGSWSQKSFEEAKRLHVPAEVIFNAKDYNNGKFGKIPDESLWEDKIKGKAFSYVYLCENETVHGVEWPELPKCLVNDPNIEIVADLSSDILSRKIDVSQYGVIMAGAQKNIGLAGLTLYIIKKSILKNISGASDETLHELGVPITPIAFDYPTVVKNNSAYNTIPIFTLHVMDLVFQHILKKGGVEAQQAENEEKAKILYEALDANSDFYNVPVDPKCRSKMNVVFTLKKDGLDDQFLKEAAARHLTGLKGHRSVGGFRASIYNALSVKAVQNLVDFIKEFAEKNA
notes: Phosphoserine aminotransferase (PSAT) of S. cerevisiae, encoded by SER1; full-length gene amplified from genomic DNA and cloned into pET28a; residues 1-395 (large domain 54-293, small domain 294-395); apo form without PLP; residues 1-53, 218-220 and 268-271 not modelled in the crystal structure; they may come from different strains; also called ScPSAT; PSAT; source: E. coli BL21 (DE3) Star, …
Regarding B1, the stoichiometry N (commonly a count of units in the complex or per binding partner) is 2.
